Results on 2 molecules are retold here after patent publication US20250282870A1 (BIOENTRE, published 2025).

For assay [1], the target named is T1, human CTLA4 expressed on Jurkat T cells (CTLA4 effector cells) (human, UniProt P16410 36-223).
T1 sequence (looked up): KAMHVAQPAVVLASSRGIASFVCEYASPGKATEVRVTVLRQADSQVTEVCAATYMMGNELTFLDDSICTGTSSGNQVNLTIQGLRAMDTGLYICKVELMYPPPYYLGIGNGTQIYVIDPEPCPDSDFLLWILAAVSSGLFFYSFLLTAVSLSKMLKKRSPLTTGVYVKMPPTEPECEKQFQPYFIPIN
In words: cell-based or functional assay.

In assay [2] the target is FcγRII (CD32) expressed on Raji cells. In words: cell-based or functional assay.

B1: 26 F(ab')2 (synthetic) (other)
VH: QVQLKESGPGLVAPSQSLSITCTVSGFSLTSYGVYWVRQPPGKGLEWLGVIWAGGTTNYNSALMSRLSISKDNSKSQVFLKMSSLQTDDTAMYYCARGPPHAMMKRGYAMDYWGQGTSVIVSS
VL: QNVLTQSPAIMPASPGEKVTMTCSATSSITYMSWYQQKSGSSPRLLIYDTSNLASGVPVRFSGSGSGTSYSLTISRMEAEDAATYYCQQWSSYPLTFGAGTKLELK
B1: the “activity titration curve, CTLA4 blockade assay, against 26 HuIgG1” value in assay [1] is > 2 fold of 26 HuIgG1.

B2: 26 HuIgG1 (chimeric antibody: VH and VL of mouse antibody 26 on a human IgG1 scaffold) (antibody, V domains shown)
VH: B1 VH
VL: B1 VL
Turning to B2, the “RLU ratio of the CTLA4 blockade assay with anti-CD32 antibody at 10 µg per ml” value in assay [2] is approximately 50%.
